This passage reports absolute IC50 (Abs IC50), inhibition of IL-5-dependent proliferation of TF-1/IL-5Rα cells results from patent US20230357415A1.

In the assay the target is IL-5Rα expressed on cells (TF-1/IL-5Rα cells; human eosinophils) (human) (UniProt Q01344). Kind of assay: cell-based or functional assay.
Chain of IL-5Rα expressed on cells (TF-1/IL-5Rα cells; human eosinophils) (human) (Q01344 21-420): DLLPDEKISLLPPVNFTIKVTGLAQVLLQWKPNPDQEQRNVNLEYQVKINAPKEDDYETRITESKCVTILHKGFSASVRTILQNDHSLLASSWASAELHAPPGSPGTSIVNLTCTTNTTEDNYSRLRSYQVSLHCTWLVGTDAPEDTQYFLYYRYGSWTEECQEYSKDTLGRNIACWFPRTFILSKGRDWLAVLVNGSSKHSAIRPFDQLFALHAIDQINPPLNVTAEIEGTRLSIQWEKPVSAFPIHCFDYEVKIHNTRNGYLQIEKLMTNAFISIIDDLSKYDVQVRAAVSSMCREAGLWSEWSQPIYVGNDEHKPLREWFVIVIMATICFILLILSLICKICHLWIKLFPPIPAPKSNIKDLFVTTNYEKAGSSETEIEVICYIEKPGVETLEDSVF

In turn, benralizumab analogue (antibody) showed an absolute IC50 (Abs IC50), inhibition of IL-5-dependent proliferation of TF-1/IL-5Rα cells of 1.99 nM.
